The values that follow come from PMC11379886, “Insights into phosphoethanolamine cellulose synthesis and secretion across the Gram-negative cell envelope” (Nature Communications, 2024).

To fix the notation:
T1: Escherichia coli BcsB (residues 55–779), as it stands in the BcsB-BcsC fusion (Escherichia coli, UniProt P37652 55-779)
T1 construct: E. coli BcsB, residues 55-779; Joined on one chain with Strep-tag II, BcsC 21-179 and a GSGSGS linker at its N-terminus (molecule m11); written apart for the BcsB-BcsC pair of the structure; source: E. coli C43, as part of the BcsB-BcsC fusion chain, co-purified with the Bcs complex
T1 sequence (looked up): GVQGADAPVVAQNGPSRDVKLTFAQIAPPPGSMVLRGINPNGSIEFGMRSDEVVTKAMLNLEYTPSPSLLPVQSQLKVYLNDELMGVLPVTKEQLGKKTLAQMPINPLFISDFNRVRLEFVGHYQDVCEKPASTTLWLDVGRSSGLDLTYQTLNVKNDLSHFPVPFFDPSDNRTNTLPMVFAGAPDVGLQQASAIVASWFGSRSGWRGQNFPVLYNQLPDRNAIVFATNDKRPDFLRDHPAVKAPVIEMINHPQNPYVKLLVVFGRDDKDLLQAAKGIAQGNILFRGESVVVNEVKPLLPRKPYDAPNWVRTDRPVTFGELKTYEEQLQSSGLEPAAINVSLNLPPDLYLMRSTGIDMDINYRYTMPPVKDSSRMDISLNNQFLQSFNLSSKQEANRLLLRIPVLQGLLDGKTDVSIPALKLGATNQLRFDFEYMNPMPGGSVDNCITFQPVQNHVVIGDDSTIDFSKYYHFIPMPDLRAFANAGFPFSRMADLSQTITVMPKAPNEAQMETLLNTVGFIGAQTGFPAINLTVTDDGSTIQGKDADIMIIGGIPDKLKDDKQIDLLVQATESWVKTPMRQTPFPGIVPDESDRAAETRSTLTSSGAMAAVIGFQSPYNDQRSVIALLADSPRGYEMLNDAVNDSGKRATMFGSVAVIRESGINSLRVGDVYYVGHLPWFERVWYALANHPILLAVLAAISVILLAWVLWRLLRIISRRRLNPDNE

B1: BcsB-BcsC fusion: BcsC TPR#1–4 fused to the N-terminus of Escherichia coli BcsB (other)
chain: VEAAPTAQQQLLEQVRLGEATHREDLVQQSLYRLELIDPNNPDVVAARFRSLLRQGDIDGAQKQLDRLSQLAPSSNAYKSSRTTMLLSTPDGRQALQQARLQATTGHAEEAVASYNKLFNGAPPEGDIAVEYWSTVAKIPARRGEAINQLKRINADAPGGSGSGSGVQGADAPVVAQNGPSRDVKLTFAQIAPPPGSMVLRGINPNGSIEFGMRSDEVVTKAMLNLEYTPSPSLLPVQSQLKVYLNDELMGVLPVTKEQLGKKTLAQMPINPLFISDFNRVRLEFVGHYQDVCEKPASTTLWLDVGRSSGLDLTYQTLNVKNDLSHFPVPFFDPSDNRTNTLPMVFAGAPDVGLQQASAIVASWFGSRSGWRGQNFPVLYNQLPDRNAIVFATNDKRPDFLRDHPAVKAPVIEMINHPQNPYVKLLVVFGRDDKDLLQAAKGIAQGNILFRGESVVVNEVKPLLPRKPYDAPNWVRTDRPVTFGELKTYEEQLQSSGLEPAAINVSLNLPPDLYLMRSTGIDMDINYRYTMPPVKDSSRMDISLNNQFLQSFNLSSKQEANRLLLRIPVLQGLLDGKTDVSIPALKLGATNQLRFDFEYMNPMPGGSVDNCITFQPVQNHVVIGDDSTIDFSKYYHFIPMPDLRAFANAGFPFSRMADLSQTITVMPKAPNEAQMETLLNTVGFIGAQTGFPAINLTVTDDGSTIQGKDADIMIIGGIPDKLKDDKQIDLLVQATESWVKTPMRQTPFPGIVPDESDRAAETRSTLTSSGAMAAVIGFQSPYNDQRSVIALLADSPRGYEMLNDAVNDSGKRATMFGSVAVIRESGINSLRVGDVYYVGHLPWFERVWYALANHPILLAVLAAISVILLAWVLWRLLRIISRRRLNPDNE
notes: N-terminal four TPRs of E. coli BcsC (TPR#1-4), residues 21-179; linker; E. coli BcsB, residues 55-779; The best map came from a tetrameric BcsB assembly; a fully assembled complex was also seen; also called nSS-Strep-TPR(#1-4)-(GS)3-B; engineered BcsB-BcsC fusion; source: E. coli C43, co-expressed with all other Bcs components, co-purified (Ni-NTA, Strep-Tactin, SEC), in detergent; not shown: …
B2: Escherichia coli BcsC TPR#1–4 (residues 21–179), as it stands in the BcsB-BcsC fusion (domain or fragment, UniProt P37650 21-179, looked up)
chain: VEAAPTAQQQLLEQVRLGEATHREDLVQQSLYRLELIDPNNPDVVAARFRSLLRQGDIDGAQKQLDRLSQLAPSSNAYKSSRTTMLLSTPDGRQALQQARLQATTGHAEEAVASYNKLFNGAPPEGDIAVEYWSTVAKIPARRGEAINQLKRINADAPG
notes: N-terminal four TPRs of E. coli BcsC (TPR#1-4), residues 21-179; Joined on one chain with BcsB 55-779 through a GSGSGS linker (molecule m11); written apart for the BcsB-BcsC pair of the structure; also called BcsC's TPRs#1–4; BcsC N-terminal TPRs; source: E. coli C43, as part of the BcsB-BcsC fusion chain, co-purified with the Bcs complex; not shown: Strep-tag II, N-terminal, kept
B3: Escherichia coli BcsB (natural protein)
chain: TPATQPLINAEPAVAAQTEQNPQVGQVMPGVQGADAPVVAQNGPSRDVKLTFAQIAPPPGSMVLRGINPNGSIEFGMRSDEVVTKAMLNLEYTPSPSLLPVQSQLKVYLNDELMGVLPVTKEQLGKKTLAQMPINPLFISDFNRVRLEFVGHYQDVCEKPASTTLWLDVGRSSGLDLTYQTLNVKNDLSHFPVPFFDPSDNRTNTLPMVFAGAPDVGLQQASAIVASWFGSRSGWRGQNFPVLYNQLPDRNAIVFATNDKRPDFLRDHPAVKAPVIEMINHPQNPYVKLLVVFGRDDKDLLQAAKGIAQGNILFRGESVVVNEVKPLLPRKPYDAPNWVRTDRPVTFGELKTYEEQLQSSGLEPAAINVSLNLPPDLYLMRSTGIDMDINYRYTMPPVKDSSRMDISLNNQFLQSFNLSSKQEANRLLLRIPVLQGLLDGKTDVSIPALKLGATNQLRFDFEYMNPMPGGSVDNCITFQPVQNHVVIGDDSTIDFSKYYHFIPMPDLRAFANAGFPFSRMADLSQTITVMPKAPNEAQMETLLNTVGFIGAQTGFPAINLTVTDDGSTIQGKDADIMIIGGIPDKLKDDKQIDLLVQATESWVKTPMRQTPFPGIVPDESDRAAETRSTLTSSGAMAAVIGFQSPYNDQRSVIALLADSPRGYEMLNDAVNDSGKRATMFGSVAVIRESGINSLRVGDVYYVGHLPWFERVWYALANHPILLAVLAAISVILLAWVLWRLLRIISRRRLNPDNE
notes: BcsB, periplasmic inner-membrane-anchored subunit of the E. coli cellulose synthase complex; In the BcsB-BcsC fusion made from the same plasmid the BcsB part is residues 55-779; also called Ec BcsB; not shown: Strep-tag II, N-terminal, kept
B4: Escherichia coli pEtN transferase BcsG, FLAG-tagged (enzyme, UniProt P37659 1-559, looked up)
chain: MTQFTQNTAMPSSLWQYWRGLSGWNFYFLVKFGLLWAGYLNFHPLLNLVFAAFLLMPLPRYSLHRLRHWIALPIGFALFWHDTWLPGPESIMSQGSQVAGFSTDYLIDLVTRFINWQMIGAIFVLLVAWLFLSQWIRITVFVVAILLWLNVLTLAGPSFSLWPAGQPTTTVTTTGGNAAATVAATGGAPVVGDMPAQTAPPTTANLNAWLNNFYNAEAKRKSTFPSSLPADAQPFELLVINICSLSWSDIEAAGLMSHPLWSHFDIEFKNFNSATSYSGPAAIRLLRASCGQTSHTNLYQPANNDCYLFDNLSKLGFTQHLMMGHNGQFGGFLKEVRENGGMQSELMDQTNLPVILLGFDGSPVYDDTAVLNRWLDVTEKDKNSRSATFYNTLPLHDGNHYPGVSKTADYKARAQKFFDELDAFFTELEKSGRKVMVVVVPEHGGALKGDRMQVSGLRDIPSPSITDVPVGVKFFGMKAPHQGAPIVIEQPSSFLAISDLVVRVLDGKIFTEDNVDWKKLTSGLPQTAPVSENSNAVVIQYQDKPYVRLNGGDWVPYPQ
notes: present as the full-length enzyme in the analysed sample; End of the FLAG tag read from the plasmid's name (G-FLAG); also called Ec BcsG; source: E. coli C43 (DE3), co-expressed with the other Bcs components or with the BcsA chimera, Rs BcsB and BcsF; co-purified; not shown: FLAG, C-terminal, kept
B5: Escherichia coli cellulase BcsZ (enzyme)
chain: ACTWPAWEQFKKDYISQEGRVIDPSDARKITTSEGQSYGMFSALAANDRAAFDNILDWTQNNLAQGSLKERLPAWLWGKKENSKWEVLDSNSASDGDVWMAWSLLEAGRLWKEQRYTDIGSALLKRIAREEVVTVPGLGSMLLPGKVGFAEDNSWRFNPSYLPPTLAQYFTRFGAPWTTLRETNQRLLLETAPKGFSPDWVRYEKDKGWQLKAEKTLISSYDAIRVYMWVGMMPDSDPQKARMLNRFKPMATFTEKNGYPPEKVDVATGKAQGKGPVGFSAAMLPFLQNRDAQAVQRQRVADNFPGSDAYYNYVLTLFGQGWDQHRFRFSTKGELLPDWGQECANSH
notes: End of the His tag read from the plasmid's name; also called Ec BcsZ
B6: periplasmic domain of Escherichia coli BcsC (TPR#1–18; residues 24–709) (domain or fragment, UniProt P37650 24-709, looked up)
chain: APTAQQQLLEQVRLGEATHREDLVQQSLYRLELIDPNNPDVVAARFRSLLRQGDIDGAQKQLDRLSQLAPSSNAYKSSRTTMLLSTPDGRQALQQARLQATTGHAEEAVASYNKLFNGAPPEGDIAVEYWSTVAKIPARRGEAINQLKRINADAPGNTGLQNNLALLLFSSDRRDEGFAVLEQMAKSNAGREGASKIWYGQIKDMPVSDASVSALKKYLSIFSDGDSVAAAQSQLAEQQKQLADPAFRARAQGLAAVDSGMAGKAIPELQQAVRANPKDSEALGALGQAYSQKGDRANAVANLEKALALDPHSSNNDKWNSLLKVNRYWLAIQQGDAALKANNPDRAERLFQQARNVDNTDSYAVLGLGDVAMARKDYPAAERYYQQTLRMDSGNTNAVRGLANIYRQQSPEKAEAFIASLSASQRRSIDDIERSLQNDRLAQQAEALENQGKWAQAAALQRQRLALDPGSVWITYRLSQDLWQAGQRSQADTLMRNLAQQKSNDPEQVYAYGLYLSGHDQDRAALAHINSLPRAQWNSNIQELVNRLQSDQVLETANRLRESGKEAEAEAMLRQQPPSTRIDLTLADWAQQRRDYTAARAAYQNVLTREPANADAILGLTEVDIAAGDKAAARSQLAKLPATDNASLNTQRRVALAQAQLGDTAAAQRTFNKLIPQAKSQPPSME
notes: BcsC periplasmic domain, TPR#1-18, residues 24-709, cloned into pET20b; also called BcsC's periplasmic domain; N-terminal 18 TPRs of BcsC; source: E. coli Rosetta 2, periplasmic extract, purified (Ni-NTA, SEC)

Data set [1] concerns the molecule itself. The experiment in a line: cryo-EM structure; BcsC TPR#1-4 fused to the N-terminus of BcsB, co-expressed with all other Bcs components, purified in detergent, about 2.2 mg/mL; focused refinement of a tetrameric BcsB assembly, about 3.2 Å.
Data set [2] has as its target T1, Escherichia coli BcsB (residues …). Described as above. To be noted: both partners purified.
Data set [3] deals with the molecule itself. The experiment in a line: cryo-EM structure; purified Ec Bcs inner membrane complex in MSP2N2 nanodiscs incubated with the separately purified periplasmic domain of BcsC (TPR#1-18) at a molar ratio of 1:5 for 1 h on ice; low-resolution map.
Data set [4] deals with the molecule itself. Put plainly: cryo-EM structure; reprocessing of the previously published cryo-EM data (EMD-23267) of the co-expressed, co-purified Ec inner membrane-associated Bcs complex, focused on BcsA-BcsG; ~5.7 Å; AlphaFold2 model docked as rigid bodies.
Data set [5] deals with the molecule itself. The experiment in a line: cryo-EM structure; BcsC incubated with purified BcsZ at a molar 1:1.5; single particle analysis, about 2.7 Å for BcsZ.
The data set “Escherichia coli BcsB” addresses B3. The experiment in a line: cryo-EM structure; purified Ec Bcs inner membrane complex in MSP2N2 nanodiscs incubated with the separately purified periplasmic domain of BcsC (TPR#1-18) at a molar ratio of 1:5 for 1 h on ice; low-resolution map. To be noted: both partners purified.

For the molecule B1, the “stoichiometry N” value in data set [1] is 4.
On to B2, for which, in data set [2], the binding result is recorded as “binds”.
B3: the “stoichiometry N” value in data set [3] turned out to be 6.
Consider B4, for which the “stoichiometry N” value in data set [4] turned out to be 3.
B5: the “stoichiometry N” value in data set [5] came to 4.
As to B6, in the data set with Escherichia coli BcsB, the binding result is “binds”.
